Measurements reported in publication PMC11208146, “Molecular basis for transposase activation by a dedicated AAA+ ATPase” (Nature, 2024).

Target: IstA transposase, wild type, full length (IS5376, Geobacillus stearothermophilus) (Geobacillus stearothermophilus)
Experiment: cryo-EM structure; IstA pre-incubated with strand-transfer-complex DNA (3.3:1), then IstB E167Q (5:1 to IstA), 37 °C; 20 mM HEPES pH 7.5, 150 mM NaCl, 5 mM MgCl2, 1 mM ATP, 1 mM DTT; 3.6 Å

stoichiometry N: 4
Substance: IstA transposase, wild type, full length (IS5376, Geobacillus stearothermophilus) (enzyme)
